Source: publication PMC10397247
Like-named read-outs stand apart in the source and are kept apart here. Each block holds one binder with its values, some of them ahead of it.

Key:
4H605-AA = molecular target: T1, 4H605-AA; experiment: two-hybrid library CCmax; details: mean of both orientations;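 also: natural log of median RNA to DNA barcode read ratio; higher means stronger binding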
T1 chain: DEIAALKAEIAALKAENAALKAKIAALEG

4H794-AA = molecular target: T2, 4H794-AA; experiment: two-hybrid library CCmax; details: mean of both orientations;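 also: natural log of median RNA to DNA barcode read ratio; higher means stronger binding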
T2 chain: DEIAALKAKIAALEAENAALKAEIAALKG

4H566-AA = molecular target: T3, 4H566-AA; experiment: two-hybrid library CCmax; details: mean of both orientations;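 also: natural log of median RNA to DNA barcode read ratio; higher means stronger binding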
T3 chain: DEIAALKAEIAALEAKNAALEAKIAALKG

4H881-AA = molecular target: T4, 4H881-AA; experiment: two-hybrid library CCmax; details: mean of both orientations;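 also: natural log of median RNA to DNA barcode read ratio; higher means stronger binding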
T4 chain: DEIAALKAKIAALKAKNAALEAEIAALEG

4H656-AA = molecular target: T5, 4H656-AA; experiment: two-hybrid library CCmax;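 also: natural log of median RNA to DNA barcode read ratio; higher means stronger binding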
T5 chain: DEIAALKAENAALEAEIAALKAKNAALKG

4H3921-AA = molecular target: T6, 4H3921-AA; experiment: two-hybrid library CCmax; details: mean of both orientations;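 also: natural log of median RNA to DNA barcode read ratio; higher means stronger binding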
T6 chain: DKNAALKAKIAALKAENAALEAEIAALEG

4H48-AA = molecular target: T7, 4H48-AA; experiment: two-hybrid library CCmax; details: mean of both orientations
T7 chain: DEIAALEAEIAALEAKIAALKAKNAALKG

4H906-AA = molecular target: T8, 4H906-AA; experiment: two-hybrid library CCmax; details: mean of both orientations
T8 chain: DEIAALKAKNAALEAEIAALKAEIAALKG

4H454-AA = molecular target: T9, 4H454-AA; experiment: two-hybrid library CCmax; details: mean of both orientations
T9 chain: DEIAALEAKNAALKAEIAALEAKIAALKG

4H678-AA = molecular target: T10, 4H678-AA; experiment: two-hybrid library CCmax; details: mean of both orientations
T10 chain: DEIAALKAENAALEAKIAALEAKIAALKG

4H717-AA = molecular target: T11, 4H717-AA; experiment: two-hybrid library CCmax; details: mean of both orientations
T11 chain: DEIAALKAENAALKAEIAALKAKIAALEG

4H780-AA = molecular target: T12, 4H780-AA; experiment: two-hybrid library CCmax; details: mean of both orientations
T12 chain: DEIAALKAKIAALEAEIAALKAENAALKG

4H429-AA = molecular target: T13, 4H429-AA; experiment: two-hybrid library CCmax; details: mean of both orientations
T13 chain: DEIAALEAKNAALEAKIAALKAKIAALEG

4H3844-AA = molecular target: T14, 4H3844-AA; experiment: two-hybrid library CCmax
T14 chain: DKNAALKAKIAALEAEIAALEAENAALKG

4H993-AA = molecular target: T15, 4H993-AA; experiment: two-hybrid library CCmax; details: mean of both orientations
T15 chain: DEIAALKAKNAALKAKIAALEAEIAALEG

4H971-AA = molecular target: T16, 4H971-AA; experiment: two-hybrid library CCmax; details: mean of both orientations
T16 chain: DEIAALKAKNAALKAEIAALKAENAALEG

4H675-AA = molecular target: T17, 4H675-AA; experiment: two-hybrid library CCmax
T17 chain: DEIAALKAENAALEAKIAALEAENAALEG

4H342-AA = molecular target: T18, 4H342-AA; experiment: two-hybrid library CCmax
T18 chain: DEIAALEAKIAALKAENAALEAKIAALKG

4H3606-AA = molecular target: T19, 4H3606-AA; experiment: two-hybrid library CCmax; details: mean of both orientations
T19 chain: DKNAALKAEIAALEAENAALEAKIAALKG

4H3655-AA = molecular target: T20, 4H3655-AA; experiment: two-hybrid library CCmax; details: mean of both orientations
T20 chain: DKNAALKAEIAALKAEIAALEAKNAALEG

4H3427-AA = molecular target: T21, 4H3427-AA; experiment: two-hybrid library CCmax; details: mean of both orientations
T21 chain: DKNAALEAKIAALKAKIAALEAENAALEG

4H3627-AA = molecular target: T22, 4H3627-AA; experiment: two-hybrid library CCmax; details: mean of both orientations
T22 chain: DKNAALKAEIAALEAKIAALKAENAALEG

4H982-AA = molecular target: T23, 4H982-AA; experiment: two-hybrid library CCmax
T23 chain: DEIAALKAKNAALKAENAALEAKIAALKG

4H697-AA = molecular target: T24, 4H697-AA; experiment: two-hybrid library CCmax
T24 chain: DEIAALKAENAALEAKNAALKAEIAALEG

4H891-AA = molecular target: T25, 4H891-AA; experiment: two-hybrid library CCmax; details: mean of both orientations
T25 chain: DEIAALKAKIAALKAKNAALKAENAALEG

4H710-AA = molecular target: T26, 4H710-AA; experiment: two-hybrid library CCmax; details: mean of both orientations
T26 chain: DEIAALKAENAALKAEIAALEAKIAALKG

4H485-AA = molecular target: T27, 4H485-AA; experiment: two-hybrid library CCmax; details: mean of both orientations
T27 chain: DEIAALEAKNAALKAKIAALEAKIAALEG

4H536-AA = molecular target: T28, 4H536-AA; experiment: two-hybrid library CCmax; details: mean of both orientations
T28 chain: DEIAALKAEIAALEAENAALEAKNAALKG

4H629-AA = molecular target: T29, 4H629-AA; experiment: two-hybrid library CCmax; details: mean of both orientations
T29 chain: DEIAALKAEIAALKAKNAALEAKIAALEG

4H570-AA = molecular target: T30, 4H570-AA; experiment: two-hybrid library CCmax; details: mean of both orientations
T30 chain: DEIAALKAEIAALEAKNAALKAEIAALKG

4H930-AA = molecular target: T31, 4H930-AA; experiment: two-hybrid library CCmax; details: mean of both orientations
T31 chain: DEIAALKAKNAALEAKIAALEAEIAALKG

4H850-AA = molecular target: T32, 4H850-AA; experiment: two-hybrid library CCmax; details: mean of both orientations
T32 chain: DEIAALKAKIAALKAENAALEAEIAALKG

4H3718-AA = molecular target: T33, 4H3718-AA; experiment: two-hybrid library CCmax; details: mean of both orientations
T33 chain: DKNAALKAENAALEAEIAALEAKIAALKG

4H745-AA = molecular target: T34, 4H745-AA; experiment: two-hybrid library CCmax; details: mean of both orientations
T34 chain: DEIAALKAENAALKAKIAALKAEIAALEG

4H3753-AA = molecular target: T35, 4H3753-AA; experiment: two-hybrid library CCmax; details: mean of both orientations
T35 chain: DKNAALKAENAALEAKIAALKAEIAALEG

4H3865-AA = molecular target: T36, 4H3865-AA; experiment: two-hybrid library CCmax; details: mean of both orientations
T36 chain: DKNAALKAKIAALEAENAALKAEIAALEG

4H797-AA = molecular target: T37, 4H797-AA; experiment: two-hybrid library CCmax; details: mean of both orientations
T37 chain: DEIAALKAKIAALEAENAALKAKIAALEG

4H94-AA = molecular target: T38, 4H94-AA; experiment: two-hybrid library CCmax; details: mean of both orientations
T38 chain: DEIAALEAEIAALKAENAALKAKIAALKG

4H458-AA = molecular target: T39, 4H458-AA; experiment: two-hybrid library CCmax; details: mean of both orientations
T39 chain: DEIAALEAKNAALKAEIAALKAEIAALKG

4H3697-AA = molecular target: T40, 4H3697-AA; experiment: two-hybrid library CCmax
T40 chain: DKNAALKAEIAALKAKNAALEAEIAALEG

4H384-AA = molecular target: T41, 4H384-AA; experiment: two-hybrid library CCmax; details: mean of both orientations
T41 chain: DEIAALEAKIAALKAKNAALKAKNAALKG

4H909-AA = molecular target: T42, 4H909-AA; experiment: two-hybrid library CCmax; details: mean of both orientations
T42 chain: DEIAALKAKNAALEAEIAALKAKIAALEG

4H906-bH = molecular target: T43, 4H906-bH; experiment: two-hybrid library CCNG1
T43 chain: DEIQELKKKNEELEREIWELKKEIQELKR

interaction score (4H605-AA): -1.48 | interaction score (4H794-AA): -1.33 | interaction score (4H566-AA): -1.77 | interaction score (4H881-AA): -0.992 | interaction score (4H656-AA): -1.07 | interaction score (4H3921-AA): -1.65 | interaction score (4H48-AA): 1.16 | interaction score (4H906-AA): -1.43 | interaction score (4H454-AA): -0.212 | interaction score (4H678-AA): 0.663 | interaction score (4H717-AA): -1.65 | interaction score (4H780-AA): 0.995 | interaction score (4H429-AA): -0.665 | interaction score (4H3844-AA): 0.661 | interaction score (4H993-AA): -1.76
B1: 4H3844-AA (peptide)
chain: DKNAALKAKIAALEAEIAALEAENAALKG

interaction score (4H891-AA): -1.55 | interaction score (4H710-AA): -1.75 | interaction score (4H485-AA): -0.973 | interaction score (4H536-AA): 0.0406 | interaction score (4H982-AA; mean of both orientations): -1.01 | interaction score (4H629-AA): -0.654 | interaction score (4H570-AA): 0.23 | interaction score (4H930-AA): -1.4 | interaction score (4H850-AA): -0.0774 | interaction score (4H3718-AA): -0.817 | interaction score (4H745-AA): -1.64 | interaction score (4H3753-AA): -1.79 | interaction score (4H3865-AA): -1.52 | interaction score (4H797-AA): -1.44 | interaction score (4H94-AA): 1.01 | interaction score (4H458-AA): -1.36 | interaction score (4H697-AA; mean of both orientations): -1.53 | interaction score (4H3697-AA): -0.761 | interaction score (4H384-AA): -0.953 | interaction score (4H909-AA): -1.21
B5: 4H3697-AA (peptide)
chain: DKNAALKAEIAALKAKNAALEAEIAALEG

interaction score (4H906-bH): 0.905
B7: 4H906-bH (peptide)
chain: DEIQELKKKNEELEREIWELKKEIQELKR

More lines, now with the values behind:

B2: 4H675-AA (peptide)
chain: DEIAALKAENAALEAKIAALEAENAALEG
interaction score (4H971-AA): 0.0439 | interaction score (4H675-AA): -1.72

B3: 4H342-AA (peptide)
chain: DEIAALEAKIAALKAENAALEAKIAALKG
interaction score (4H605-AA): 1.41 | interaction score (4H794-AA): 1.25 | interaction score (4H566-AA): 2.31 | interaction score (4H342-AA): 1.54 | interaction score (4H881-AA): 2.49 | interaction score (4H3606-AA): 1.55 | interaction score (4H3655-AA): -0.61 | interaction score (4H3921-AA): 0.975 | interaction score (4H48-AA): -0.491 | interaction score (4H906-AA): -1.52 | interaction score (4H3427-AA): -1.15 | interaction score (4H454-AA): 2.21 | interaction score (4H678-AA): 0.227 | interaction score (4H717-AA): -1.4 | interaction score (4H780-AA): -1.58 | interaction score (4H3627-AA): 0.447 | interaction score (4H429-AA): -0.49 | interaction score (4H3844-AA; mean of both orientations): 0.569 | interaction score (4H993-AA): 1.17

B4: 4H697-AA (peptide)
chain: DEIAALKAENAALEAKNAALKAEIAALEG
interaction score (4H982-AA): 2.27 | interaction score (4H697-AA): -1.15

B6: 4H656-AA (peptide)
chain: DEIAALKAENAALEAEIAALKAKNAALKG
interaction score (4H971-AA): 1.93 | interaction score (4H656-AA): 0.334 | interaction score (4H675-AA; mean of both orientations): 0.797
